Sequences and labels used below:
T1: His-tagged P3028 (PGE73) (human, also: His tag, length and end not given here)
T1 construct: the tag is put first here only for want of a statement; also called His-tag-P3028; not shown: His tag
T1 peptide: VFDEFKPLVEEPQNLIK

B1: SEQ ID NO 9 (peptide)
peptide: KKLDTFMVKLSLFTER
notes: on PEPSCAN card; also called P28R with M in position 7
B2: SEQ ID NO 23 (peptide)
peptide: KKLDTFFVKLSLQTER
notes: on PEPSCAN card; also called P28R with Q in position 13
B3: SEQ ID NO 22 (peptide)
peptide: KKLDTFFVKLSLMTER
notes: on PEPSCAN card; also called P28R with M in position 13
B4: SEQ ID NO 25 (peptide)
peptide: KKLDTFFVKLSLNTER
notes: on PEPSCAN card; also called P28R with N in position 13
B5: SEQ ID NO 16 (peptide)
peptide: KKLDTFFVKLMLFTER
notes: on PEPSCAN card; also called P28R with M in position 11
B6: SEQ ID NO 15 (peptide)
peptide: KKLDTFFVKLQLFTER
notes: on PEPSCAN card; also called P28R with Q in position 11
B7: SEQ ID NO 24 (peptide)
peptide: KKLDTFFVKLSLHTER
notes: on PEPSCAN card; also called P28R with H in position 13
B8: SEQ ID NO 10 (peptide)
peptide: KKLDTFSVKLSLFTER
notes: on PEPSCAN card; also called P28R with S in position 7

Ends that are not written are not given here.

The first assay concerns the target Artificial Cell Surface (ACS). In words: ACS column adsorption of Asp-N-digested dHSA, MALDI-TOF MS.
In turn, DRVTKCCTESLVNRRPCFSALEV [… (Asp-N-generated albumin fragment, SEQ ID NO: 219)] registered a Percent Absorbed of 87%. DDKETCFAEEGKKLVAASQAALGL [… (Asp-N-generated albumin fragment, SEQ ID NO: 218)]: the Percent Absorbed was found to be 100%. On the same count and under the same terms, next, ICTLSEKERQIKKQTALVELVKHKPKATKEQLKAVM [… (Asp-N-generated albumin fragment, SEQ ID NO: 225)]: 100%. As for DETYVPKEFNAETFTHA [… (Asp-N-generated albumin fragment, SEQ ID NO: 220)], the Percent Absorbed stood at 86%. The molecule DKLCTVATLRETYGEM [… (Asp-N-generated albumin fragment, SEQ ID NO: 222)] came in with a Percent Absorbed of 65%.

The molecule YLSVVLNQLCVLHEKTPVSDRVTKCCCTESLVNRRPFSALEV [… (Asp-N-generated albumin fragment, SEQ ID NO: 230)] had a Percent Absorbed of 37%.

Turning to DHVKLVNEVTEFAKTCVA [… (Asp-N-generated albumin fragment, SEQ ID NO: 217)], the Percent Absorbed amounted to 100%. The molecule RVTKCCTESLVNRRPCFSALEVDETYVPKEFNAETFTFHA [… (Asp-N-generated albumin fragment, SEQ ID NO: 229)] showed a Percent Absorbed of 100%. Turning to DSISSKLKECCEKPLLEKSHCIAEVEN [… (Asp-N-generated albumin fragment, SEQ ID NO: 221)], the Percent Absorbed is 65%.

Turning to VFLGMFLYEYARRHPDYSVVLLLRLAKTYETTLEKCCAAA [… LEKCCAAA (Asp-N-generated albumin fragment, SEQ ID NO: 227)], the Percent Absorbed worked out at 100%. For KLCTVATLRETYGEMADCCAKQEPERNECFLQHK [… (Asp-N-generated albumin fragment, SEQ ID NO: 224)], the Percent Absorbed was 100%. Consider LGEENFKALVLIAFAQYLQQCPFEDHVKLVNEVTEFAKTCVA [… (Asp-N-generated albumin fragment, SEQ ID NO: 228)], for which the Percent Absorbed was 100%. Still for that read-out and setting: as for YSVVLLLRLAKTYETTLEKCCAAADPHECYAKVF [… (Asp-N-generated albumin fragment, SEQ ID NO: 223)], the figure is 100%. On the same count and under the same terms, next, LAKYICENQDSISSKLKECCEKPLLEKHCIAEVEN [… (Asp-N-generated albumin fragment, SEQ ID NO: 226)]: 100%.

For a further assay, the target named is Artificial Cell Surface (ACS). Nature of the assay: ACS column adsorption of trypsin-digested dHSA, MALDI-TOF MS.
LCTVATLR [LCTVATLR (trypsin-generated albumin fragment, SEQ ID NO: 202)] returned a Percent Absorbed of 35%.

The target in a further assay is T1, His-tagged P3028 (PGE73). Nature of the assay: PEPSCAN ELISA: peptide on chip, His-tagged P3028 in solution, anti-His mAb and rampo conjugate. Background: ELISA stands for enzyme-linked immunosorbent assay.
Protocol: After washing, the peroxidase substrate 2,2′-azine-di-3-ethylbenzthiazoline sulfonate (ABTS) and 2 μL of 3% H2O2 were added. The binding capacity of the mAb was measured as a color development at 405 nm (optical density, OD405). The color development was quantified with a charge-coupled device (CCD)—camera and an image processing system.
The OD405-values obtained by a CCD-camera was considered as raw data values (“rampo values,” “rampo units,” or “rampo scores”). […] First the CCD-camera made a picture of the card before peroxidase coloring and then again a picture after the peroxidase coloring. […] These values were copied into an excel file and labeled as a raw data file. […] Sometimes a well can contain an air-bubble resulting in a false-positive value. If manual inspection of the cards detect an air-bubble the value are set to 0 for well.
For B1, the rampo value was > 700 rampo units. On the same count and under the same terms, next, B2: > 800 rampo units.

Regarding B3, the rampo value was > 800 rampo units. Turning to B4, the rampo value is > 800 rampo units.

As to B5, the rampo value is > 700 rampo units.

As for B6, the rampo value is > 700 rampo units. As for B7, the rampo value is > 800 rampo units. Same read-out and setting: as for B8, the figure is > 700 rampo units.
